Measurements from PMC125294 (Arthritis Research, 2002).
Ends that are not written are not given here.

T1: Lewis rat MHC class II molecule, RT1.B^L (rat (Lewis), UniProt P20037 24-256; P29826 28-263)
T1 sequence (looked up) 1: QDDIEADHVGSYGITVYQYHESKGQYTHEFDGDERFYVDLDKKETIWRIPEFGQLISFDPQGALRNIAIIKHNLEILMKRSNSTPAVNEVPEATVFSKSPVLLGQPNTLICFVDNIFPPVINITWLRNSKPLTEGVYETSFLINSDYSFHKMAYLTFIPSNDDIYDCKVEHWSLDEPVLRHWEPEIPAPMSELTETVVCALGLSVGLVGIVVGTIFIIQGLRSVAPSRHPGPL
T1 sequence (looked up) 2: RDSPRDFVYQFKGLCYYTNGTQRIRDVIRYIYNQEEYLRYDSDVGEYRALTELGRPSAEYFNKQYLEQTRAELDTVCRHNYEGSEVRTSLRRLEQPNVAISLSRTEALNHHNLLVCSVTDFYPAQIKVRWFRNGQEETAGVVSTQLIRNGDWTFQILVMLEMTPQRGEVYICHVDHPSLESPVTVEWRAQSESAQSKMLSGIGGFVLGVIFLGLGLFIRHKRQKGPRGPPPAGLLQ


Columns and labels:
[1] = system: MMP peptide-specific T cells; test: Delayed-type hypersensitivity; conditions: control ovalbumin peptide
[2] = system: polyclonal lymph node cell population; conditions: ref [9] (also Fig. 3); cited from earlier work
[3] = molecular target: T1, Lewis rat MHC class II molecule, RT1.B^L; test: competitive MHC class II-peptide binding assay

Molecule | IC50 [3] [µM] | also measured
ISQAVHAAHAEINEAGR [OVA323–339] | – | DTH reaction (in words), control peptide [1]: no DTH reaction was observed
SNTFGLQLE [hsp65_178–186] | – | proliferative response to mycobacterial hsp65 178–186 [2]: very low

More lines, main results first:

IC50 [3] [µM] | Molecule | also measured
≤ 8 | FLYFFSGSSQLEFDP-NH2 [Rat MMP-3_(444-458) peptide] | –
64 to 128 | VKEGHSPPDDVDIVI-NH2 [Human MMP-16_(539-553) peptide] | –
128 to 256 | SAFWPSLPSGLDAAY-NH2 [Rat MMP-10_(329-343) peptide] | –
